Tested on: MS2 coat protein
Assay: apparent KD of MS2 coat protein; higher = weaker reporter binding
Details: Eterna round: R107
Experimental: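 RNA-MaP round R107: designed RNA switches with theophylline, tryptophan, arginine or FMN aptamers are transcribed on-chip within common flanks. They are titrated with SNAP-549-labelled MS2 coat protein in RNA-MaP buffer (100 mM Tris pH 7.5, 80 mM KCl, 4 mM MgCl2), without ligand or with the indicated ligand. Median apparent KD per design.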

[1] = input ligand: theophylline 20 uM
[2] = input ligand: tryptophan 2.4 mM
[3] = input ligand: theophylline 2 mM

Sequence	apparent KD of MS2 coat protein (input ligand: arginine 13.2 mM)	apparent KD of MS2 coat protein [1]	apparent KD of MS2 coat protein [2]	apparent KD of MS2 coat protein (input ligand: none)	apparent KD of MS2 coat protein [3]
CGUGGUGGGACGGAUACCAGCCACCGCGGCAACGCAACAUGAGGAUCACCCAUGUUGGGUGGCCCUUGGCAGCUGUCCUGCGGCG [#1 Same State - Theophylline B Attempt #26 (HarryS)]	9.91 nM	15 nM	11.4 nM		
ACAUGAGGAUCACCCAUGUCUGCCACUGAUACCAGCGGAAGCCAACGCCCUUGGCAGCAGAACAUGAGGAUCACCCAUGUAGGCA [Same State Theophylline A GF26]	52.8 nM	180 nM	256 nM		
UUCAGACAUGAGGAUCACCCAUGUACUGAAGGAGCGGAUAAAUAUCCAGGUAGGUCGCAGUAUUGAGGGUCUACUUCCAGUCUUU [Reoruser]	8.42 nM	11.9 nM	9.82 nM	9.48 nM	9.47 nM
UGGGUAGCAUAGAUUGAUAGUUAAACUGAAGGAGCGAGAAUAAUCUCAGGUAGGUCGCAGACAUGAGGAUCACCCAUGUAGAUGG [Same State Arginine A GF16]	47 nM	129 nM	68 nM	122 nM	88.8 nM
ACUACAUGAGGAUCACCCAUGUGUACUGAAGGAGCGGCGGAAACGCCAGGUAGGUCGCAGUACACCUCAACCAGCGGUCCUAAGU [EAA NP+V+V2 #1]	30 nM	85.9 nM	51.1 nM	38.2 nM	115 nM
UGCUAGUGAUCGGCCGCCACUGGCACCUUGAGGAUCCUGCUAAAGUACAUGAGGAUCACCCAUGUCAGGACCGGGAUCAUCAGUG [Onveusonri]	9.02 nM	11.8 nM			10.8 nM
UGGUACAUGAGGAUCACCCAUGUCCUCAUCCGAGGACCGGUACGGCCGCCACUCGAAAUUGCGAUCGGCACAAAACAAAUGCUUG [theeternabot_sameState_MS2_Trp_A_39]	87.8 nM	205 nM			179 nM
UAAUCAGUGCCGGUUCUCGGAUCCUCAUGUCGAGGACCGGUACGGCCGCCACUCGAAACAUGAGGAUCACCCAUGUAAUAAUAAU [#09 Exclusion Tryptophan A]	44.2 nM	116 nM			103 nM
GAUGAUAUUGCAGAUACCAGACACAUGAGGAUCACCCAUGUCUCUGAGAUGAAGGAUCGUGUCCCUUGGCAGCUGCGAUAUCAUC [Bulgaria]	25.1 nM	72.9 nM	30.3 nM		
GUUAUAUACUCGGCCGCCACUGAGAGAGUCAUGUAAACAUGAGGAUCACCCAUGUAAUAUAUAUACAGGACCGGGAGUAUGGUAA [4.E]	12.1 nM	18.6 nM			14 nM
CGACUACAGCGUGAUACCAGUGACAGAUACCAGUCUAGACAUGAGGAUCACCCAUGUACGCGCCCUUGGCAGCACACUAGAUCGA [#29 Same State - Theophylline B]	36.7 nM	128 nM	83.2 nM		
UGUAUGGACUGAAGGAGCGCCUCAAAAUAACUUGAGGAUCACCCAAGUAAGGCGAAAGCCGGGCAGGUAGGUCGCAGUCCAUACU [ArgBX 3]	24.1 nM	28.1 nM	12.4 nM	10.6 nM	15.2 nM
GGUUGGUGUGGAGACAUAUUGAUCACUGAAGGAGCGGGAAUAAACCCAGGUAGGUCGCAGAGAUCCACAUGAGGAUCACCCAUGU [!0.Q]	80.8 nM	68.9 nM	36.2 nM	40.2 nM	86.6 nM
CACGAAAGAUCGGCCGCCACUAAUCUAUGUGUACUAGCACAUGAGGAUCACCCAUGUUCUUGCGUUAGGACCGGGAUUGAGCGUG [#03 Exclusion Tryptophan B]	23.4 nM	27.6 nM			24 nM
AGUACCAAUGAGGAUACCAGAGUGCGACGCCGAAACCUUGACAUGAGGAUCACCCAUGUACUCCCUUGGCAGCCUGUACUUGCCA [theeternabot_exclusion_MS2_Theo_B_17]	22.8 nM	40.7 nM	34.9 nM		
UUAGAUAUGACGGAUACCAGCGUGUUGUAGAACAUGAGGAUCACCCAUGUAGUGAUCGUGCGCCCUUGGCAGCUGGUAUGUUUGG [7.V]	133 nM	491 nM	501 nM		
CCCAAGCCAGCUGAUACCAGUGACGUGGUCAGAAUGUGCGACAUGAGGAUCACCCAUGUACACCCUUGGCAGCAGUAGAACGGUU [theeternabot_exclusion_MS2_Theo_B_47]	13.6 nM	18.9 nM	14.9 nM		
AAUGUAUGGCACAUGAGGAUCACCCAUGUGCGAGGACCGGUACGGCCGCCACUCGGUCCUGGAUUCUUAUUACUAUACAUUAAUG [XTryp A #16]	14 nM	18.9 nM			15.4 nM
UCAAUACAGUCGGCCGCCACUGUAACCAAACCUACAUACCAACAUGAGGAUCACCCAUGUUUAUACAGGACCGGGACCUCUAUGA [theeternabot_sameState_MS2_Trp_B_10]	32.6 nM	45.8 nM			46.4 nM
UGACAUUGCUCAGAUACCAGACAUGAGGAUCACCCAUGUACCAAGAAAACGUACAAUAAUGUCCCUUGGCAGCUGAGCAAUGUCU [TheoBX 9 #MS2Left #Theo2]	64.8 nM	180 nM	93.6 nM		
AAAAUAAUGGCGGCCGCCACUAACUCAUAUACAUCAUGUACAUGAGGAUCACCCAUGUAGGUGUAUAGGACCGGGCCAUAAUUAA [39MS split4]	18.3 nM	22.2 nM			18.8 nM
UAGUCCGCGACGGCCGCCACUCGCUGAUGCACAUGUGUCCGGGACAUGAGGAUCACCCAUGUUUCGAGGACCGGGUCGAUCCUAA [Same State Tryptophan B GF 5]	37.5 nM	81.5 nM			91.6 nM
GUAUAGUCUCGAAGGAGCGUCACAUGAGGAUCACCCAUGUACAUGAGGAUCACCCAUGUGUGGCAGGUAGGUCGCGAGCUAUACC [Exclusion Arginine B GF8]	136 nM	228 nM	312 nM	265 nM	281 nM
AUAACAUGAGGAUCACCCAUGUAAGCUGAAGGAGCGGACGAAAGUCCAGGUAGGUCGCAGCGCUCCUUCACCUCAUGAGAAGGAG [(M1)-(M2)-(Arg1)-(Arg2)-(A)'-(M)'-(A)''_Design2]	23.4 nM	31.4 nM	22.4 nM	23 nM	25.3 nM
ACCUCAAUGGAUGAUACCAGCUCAAGGACGAACAUGAGGAUCACCCAUGUGACGUGGUGUAGCCCUUGGCAGCAUACUGACACCU [theeternabot_sameState_MS2_Theo_B_24]	34.6 nM	49 nM	39.1 nM		
AAUUGGCACUGAAGGAGCGAGUUUACCUAAAUAACAUGAGGAUCACCCAUGUAAAAUGGGACUCAGGUAGGUCGCAGUUGUCAAA [Same State Arginine B GF 22]	48 nM	76.4 nM	61.5 nM	57.6 nM	63.7 nM
AUGUAGAACCGAAGGAGCGCGAUAACAUGAGGAUCACCCAUGUAGCUUUGGUGGCCUCGAUCGCAGGUAGGUCGCGGAAGUAGUA [Exclusion - Arginine B / A]	40.8 nM	213 nM	155 nM	102 nM	231 nM
GCUGUUGCGGUGAGGUAUCCGGCUGUGGAAGGAGCGCGGAAGGCCGCAGGUAGGUCGCCACAUGAGGAUCACCCAUGUCGAUAUA [Aninati]	48.7 nM	80.6 nM	16.8 nM	16.9 nM	28.3 nM
